# Data taken from IntAct's records for PubMed 30388101.
# B1: Paired immunoglobulin-like type 2 receptor alpha (Homo sapiens), Q9UKJ1 (parent)
# chain: MGRPLLLPLLPLLLPPAFLQPSGSTGSGPSYLYGVTQPKHLSASMGGSVEIPFSFYYPWELATAPDVRISWRRGHFHRQSFYSTRPPSIHKDYVNRLFLNWTEGQKSGFLRISNLQKQDQSVYFCRVELDTRSSGRQQWQSIEGTKLSITQAVTTTTQRPSSMTTTWRLSSTTTTTGLRVTQGKRRSDSWHISLETAVGVAVAVTVLGIMILGLICLLRWRRRKGQQRTKATTPAREPFQNTEEPYENIRNEGQNTDPKLNPKDDGIVYASLALSSSTSPRAPPSHRPLKSPQNETLYSVLKA
# partner: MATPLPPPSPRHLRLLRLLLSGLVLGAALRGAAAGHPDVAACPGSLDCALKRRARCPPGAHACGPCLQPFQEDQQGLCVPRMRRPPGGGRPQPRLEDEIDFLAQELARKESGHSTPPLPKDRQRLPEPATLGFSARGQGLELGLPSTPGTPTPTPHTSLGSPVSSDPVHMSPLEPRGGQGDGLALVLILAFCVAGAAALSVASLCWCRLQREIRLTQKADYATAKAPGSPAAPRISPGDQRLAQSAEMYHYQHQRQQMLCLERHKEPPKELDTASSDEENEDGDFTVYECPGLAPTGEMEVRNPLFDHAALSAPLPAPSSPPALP
# B2: Paired immunoglobulin-like type 2 receptor alpha (Homo sapiens), Q9UKJ1 (parent)
# chain: B1 chain
# partner: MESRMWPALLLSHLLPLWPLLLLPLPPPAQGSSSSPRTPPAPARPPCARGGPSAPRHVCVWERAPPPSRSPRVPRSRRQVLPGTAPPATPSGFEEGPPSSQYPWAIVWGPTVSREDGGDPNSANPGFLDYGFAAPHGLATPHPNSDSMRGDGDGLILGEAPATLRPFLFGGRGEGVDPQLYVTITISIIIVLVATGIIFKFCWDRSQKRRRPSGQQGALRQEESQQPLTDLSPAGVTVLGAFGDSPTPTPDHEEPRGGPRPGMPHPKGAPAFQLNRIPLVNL
# B3: Paired immunoglobulin-like type 2 receptor alpha (Homo sapiens), Q9UKJ1 (parent)
# chain: B1 chain
# Variants of: B1
# Conditions: with npdc1_human NPDC1, Q9NQX5
row,effect of a mutation on the interaction,Variant
1,increasing interaction strength,S80G
2,increasing interaction strength,R78G
3,increasing interaction strength,S141A
4,disrupting interaction strength,R72A
5,disrupting interaction strength,Q140A
6,disrupting interaction strength,F76A

# Variants of: B1
# Conditions: with npdc1_human NPDC1, Q9NQX5
# Remark: another data set of the same source
row,effect of a mutation on the interaction,Variant
1,decreasing interaction strength,Q140A

# Variants of: B2
# Conditions: with pianp_human PIANP
row,effect of a mutation on the interaction,Variant
1,increasing interaction strength,S80G
2,disrupting interaction strength,R72A
3,increasing interaction strength,R78G
4,disrupting interaction strength,F76A

# Variants of: B3
# Conditions: with co4a_human C4A
row,effect of a mutation on the interaction,Variant
1,increasing interaction strength,S80G
2,disrupting interaction strength,F76A
3,increasing interaction strength,R78G
